For this test, the target named is T1, CD123 Protein, His Tag, Acro Biosciences Cat. No. ILA-H52H6 (Homo sapiens (Human), UniProt P26951 19-305).
T1 construct: Bought protein; not shown: His tag
T1 sequence: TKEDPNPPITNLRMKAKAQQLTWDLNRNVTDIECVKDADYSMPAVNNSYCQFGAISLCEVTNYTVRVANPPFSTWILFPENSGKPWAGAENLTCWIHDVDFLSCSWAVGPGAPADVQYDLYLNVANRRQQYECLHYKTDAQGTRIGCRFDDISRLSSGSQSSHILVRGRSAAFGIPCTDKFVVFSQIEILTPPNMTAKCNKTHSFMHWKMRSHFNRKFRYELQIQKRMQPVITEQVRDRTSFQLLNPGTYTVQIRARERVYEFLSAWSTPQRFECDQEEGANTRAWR
Put plainly: BLI, IgG on anti-human Fc sensor, 50 nM CD123, pH 7.4 and pH 5.4. An excerpt: We selected IMGN632 (Heavy chain SEQ ID NO: 1, Light chain SEQ ID NO: 2) as a CD123-binding monoclonal antibody for pH engineering via histidine scanning. Briefly, CDRs in the heavy chain were identified using the methods described by Kabat et al (Kabat et al. (1992) Sequences of Proteins of Immunological Interest, DIANE publishing) and IMGT (Lefranc M P (1999) “The IMGT unique numbering for Immunoglobulins, T cell receptors and Ig-like domains” The Immunologist 7, 132-136), and for each CDR, residues falling under either or both Kabat and IMGT CDR definitions were called as CDR residues. To generate pH-dependent sequence variants, individual amino acid residues within the heavy chain CDRs were systematically substituted with a histidine, one at a time (MYT1252-MYT1292). In cases where the starting CDR residue was a histidine, it was mutated to an alanine. Antibody variants with only one histidine or alanine mutation in a heavy chain CDR were generated by co-transfection of Expi293 cells with a) one heavy chain sequence variant, and b) the corresponding starting ABPC light chain using methods known to the art. After allowing for four days of protein expression, cell culture supernatants were collected, quantified by SDS-PAGE analysis (FIG. 1), and the pH dependence of the variant was evaluated using biolayer interferometry (BLI) on an Octet RED 384 instrument. For constructs MYT1252, MYT1254-MYT1287, and MYT1289-1292, 104, of cell culture supernatant was diluted into 1904, of 1× PBST pH 7.4. For MYT1253 and MYT1288 254, and 504, of cell culture supernatant was diluted into 1754, and 1504, respectively. […] The resulting diluted supernatants were then captured on an anti-human Fc sensor (Forte Bio). A baseline was established using 1× PBST (50 mM Potassium Phosphate Buffer+150 mM NaCl+0.05% Tween 20) pH 7.4, and the sensor was associated with 50 nM of CD123 (CD123 Protein, His Tag, Acro Biosciences Cat. No. ILA-H52H6, Lot No. 1741d-89CF1-KB) in 1×PBST pH 7.4 for 120 sec to generate an association curve. In the dissociation phase, the antibody-antigen complex on the sensor was exposed to 1× PBST pH 7.4 for 300-600 sec. Baseline, association, and dissociation were repeated using 1×PBST pH 5.4 throughout in a separate condition.
On the technique in general: Biolayer interferometry detects binding as a change in optical thickness at a sensor tip.

Positions count from the first letter of the chain named.

B1: MYT1288 (antibody, V domains shown)
VH: QVQLVQSGAEVKKPGASVKVSCKASGYIFTSSIMHWVRQAPGQGLEWIGYIKPYNDGTKYNEKFKGRATLTSDRSTSTAYMELSSLRSEDTAVYYCAREGGNDYYHTMDYWGQGTLVTVSS
VL: DIQMTQSPSSLSASVGDRVTITCRASQDINSYLSWFQQKPGKAPKTLIYRVNRLVDGVPSRFSGSGSGNDYTLTISSLQPEDFATYYCLQYDAFPYTFGQGTKVEIK
notes: IgG
Turning to B1, the binding result was “binds”.

B2: MYT2781 (antibody, V domains shown)
VH: B1 VH with H106D
VL: B1 VL with Y32H
notes: IgG
For B2, the binding result is recorded as “binds”.

B3: MYT2784 (antibody, V domains shown)
VH: B1 VH with H106D
VL: B1 VL with R50H
notes: IgG
On to B3, for which the binding result is “binds”.

B4: MYT2764 (antibody, V domains shown)
VH: B1 VH with Y27H, H35A, H106D, T107H
VL: B1 VL
notes: IgG
Take B4: the binding result is listed as “binds”.

B5: MYT2755 (antibody, V domains shown)
VH: B1 VH with Y27H, H106D, T107H
VL: B1 VL
notes: IgG
Take B5: the binding result is given as “binds”.

B6: MYT2778 (antibody, V domains shown)
VH: B1 VH with H106D
VL: B1 VL with I29H
notes: IgG
Take B6: the binding result was “binds”.

B7: MYT1292 (antibody, V domains shown)
VH: B1 VH with H106D, Y110H
VL: B1 VL
notes: IgG
With B7, the binding result is given as “binds”.

B8: MYT2759 (antibody, V domains shown)
VH: B1 VH with H35A, H106D, D109H
VL: B1 VL
notes: IgG
Take B8: the binding result was “binds”.

B9: MYT2782 (antibody, V domains shown)
VH: B1 VH with H106D
VL: B1 VL with L33H
notes: IgG
In the case of B9, the binding result is “binds”.

B10: MYT2776 (antibody, V domains shown)
VH: B1 VH with H106D
VL: B1 VL with Q27H
notes: IgG
Turning to B10, the binding result was “binds”.

B11: MYT2777 (antibody, V domains shown)
VH: B1 VH with H106D
VL: B1 VL with D28H
notes: IgG
With B11, the binding result was “binds”.

B12: MYT2779 (antibody, V domains shown)
VH: B1 VH with H106D
VL: B1 VL with N30H
notes: IgG
B12: the binding result was “binds”.

B13: MYT2757 (antibody, V domains shown)
VH: B1 VH with H35A, Y105H, H106D
VL: B1 VL
notes: IgG
B13: the binding result is recorded as “binds”.

B14: MYT2780 (antibody, V domains shown)
VH: B1 VH with H106D
VL: B1 VL with S31H
notes: IgG
With B14, the binding result was “binds”.

B15: MYT2788 (antibody, V domains shown)
VH: B1 VH with H106D
VL: B1 VL with L54H
notes: IgG
Regarding B15, the binding result is reported as “binds”.

B16: MYT2785 (antibody, V domains shown)
VH: B1 VH with H106D
VL: B1 VL with V51H
notes: IgG
Take B16: the binding result is “binds”.

B17: MYT2763 (antibody, V domains shown)
VH: B1 VH with Y27H, H35A, Y105H, H106D
VL: B1 VL
notes: IgG
For B17, the binding result is reported as “binds”.

B18: MYT2789 (antibody, V domains shown)
VH: B1 VH with H106D
VL: B1 VL with V55H
notes: IgG
B18: the binding result was “binds”.

B19: MYT1290 (antibody, V domains shown)
VH: B1 VH with H106D, M108H
VL: B1 VL
notes: IgG
Regarding B19, the binding result was “binds”.

B20: MYT2762 (antibody, V domains shown)
VH: B1 VH with H106D, T107H, D109H
VL: B1 VL
notes: IgG
As to B20, the binding result was “binds”.

B21: MYT2761 (antibody, V domains shown)
VH: B1 VH with Y105H, H106D, D109H
VL: B1 VL
notes: IgG
B21: the binding result is reported as “binds”.

B22: MYT2753 (antibody, V domains shown)
VH: B1 VH with Y27H, H35A, H106D
VL: B1 VL
notes: IgG
Take B22: the binding result is “binds”.

B23: MYT2774 (antibody, V domains shown)
VH: B1 VH with H106D
VL: B1 VL with A25H
notes: IgG
As to B23, the binding result is reported as “binds”.

B24: MYT2787 (antibody, V domains shown)
VH: B1 VH with H106D
VL: B1 VL with R53H
notes: IgG
Regarding B24, the binding result is on record as “binds”.

B25: MYT2775 (antibody, V domains shown)
VH: B1 VH with H106D
VL: B1 VL with S26H
notes: IgG
With B25, the binding result is given as “binds”.

B26: MYT2760 (antibody, V domains shown)
VH: B1 VH with Y105H, H106D, T107H
VL: B1 VL
notes: IgG
Consider B26, for which the binding result is recorded as “binds”.

B27: MYT2756 (antibody, V domains shown)
VH: B1 VH with Y27H, H106D, D109H
VL: B1 VL
notes: IgG
With B27, the binding result is “binds”.

B28: MYT2786 (antibody, V domains shown)
VH: B1 VH with H106D
VL: B1 VL with N52H
notes: IgG
Regarding B28, the binding result is given as “binds”.

B29: MYT2773 (antibody, V domains shown)
VH: B1 VH with H106D
VL: B1 VL with R24H
notes: IgG
Take B29: the binding result is “binds”.

B30: MYT1291 (antibody, V domains shown)
VH: B1 VH with H106D, D109H
VL: B1 VL
notes: IgG
On to B30, for which the binding result was “binds”.

B31: MYT1289 (antibody, V domains shown)
VH: B1 VH with H106D, T107H
VL: B1 VL
notes: IgG
For B31, the binding result was “binds”.

B32: MYT2790 (antibody, V domains shown)
VH: B1 VH with H106D
VL: B1 VL with D56H
notes: IgG
Take B32: the binding result is “binds”.

B33: MYT2754 (antibody, V domains shown)
VH: B1 VH with Y27H, Y105H, H106D
VL: B1 VL
notes: IgG
With B33, the binding result was “binds”.

B34: MYT2783 (antibody, V domains shown)
VH: B1 VH with H106D
VL: B1 VL with S34H
notes: IgG
B34: the binding result was “binds”.

These data come from US20220306751A1 (MYTHIC THERAPEUTICS, published 2022).
